How the values were obtained:
[1] = biological target: erbB2 peptide (Homo sapiens) (UniProt P04626); settings: cited from earlier work
[2] = biological target: hGrb7-RA-PH domains (residues 103-341), hexa-histidine fusion (human, UniProt Q14451 103-341); assay: ITC
Chain of hGrb7-RA-PH domains (residues 103-341), hexa-histidine fusion (Q14451 103-341): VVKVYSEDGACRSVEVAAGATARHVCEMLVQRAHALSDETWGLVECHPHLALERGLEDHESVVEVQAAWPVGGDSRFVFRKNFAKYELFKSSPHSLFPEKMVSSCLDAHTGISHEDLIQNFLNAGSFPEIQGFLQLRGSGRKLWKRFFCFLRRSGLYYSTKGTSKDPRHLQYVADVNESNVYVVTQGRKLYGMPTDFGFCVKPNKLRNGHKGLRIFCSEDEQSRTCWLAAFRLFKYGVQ

Chain of Grb7 SH2 (Q14451 428-530): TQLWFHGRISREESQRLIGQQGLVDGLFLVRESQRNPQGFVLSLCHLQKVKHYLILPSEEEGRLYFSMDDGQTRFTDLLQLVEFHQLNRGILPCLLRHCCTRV

Row | Kd [2] [nM] | Molecule | Kd [1] [nM]
1 | – | Grb7 SH2 (from UniProt Q14451) | 2280
2 | 2800 | human Grb7-SH2 domain (domain or fragment, UniProt Q14451 431-527, looked up) WFHGRISREESQRLIGQQGLVDGLFLVRESQRNPQGFVLSLCHLQKVKHYLILPSEEEGRLYFSMDDGQTRFTDLLQLVEFHQLNRGILPCLLRHCC | –

Source: paper PMC4136552 (Journal of molecular recognition : JMR, 2011)
